{"source": "paper PMC10167749", "about": "“The catalytic domains of Streptococcus mutans glucosyltransferases: a structural analysis” (Acta Crystallographica. Section F, Structural Biology …, 2023)", "molecular_target": "T1, catalytic domain of Streptococcus mutans GtfB (GtfB-CD) (Streptococcus mutans (UA159), UniProt P08987 191-1051)", "T1 construct": "Glucosyltransferase GtfB (GTF-I), Streptococcus mutans UA159, catalytic domain, residues 191-1051 (UniProt P08987); Cloned between NcoI and XhoI of pET-23d; also called GTF-I; source: E. coli BL21(DE3), pET-23d, purified (HisTrap FF, Mono Q, Superdex 200)", "T1 sequence": "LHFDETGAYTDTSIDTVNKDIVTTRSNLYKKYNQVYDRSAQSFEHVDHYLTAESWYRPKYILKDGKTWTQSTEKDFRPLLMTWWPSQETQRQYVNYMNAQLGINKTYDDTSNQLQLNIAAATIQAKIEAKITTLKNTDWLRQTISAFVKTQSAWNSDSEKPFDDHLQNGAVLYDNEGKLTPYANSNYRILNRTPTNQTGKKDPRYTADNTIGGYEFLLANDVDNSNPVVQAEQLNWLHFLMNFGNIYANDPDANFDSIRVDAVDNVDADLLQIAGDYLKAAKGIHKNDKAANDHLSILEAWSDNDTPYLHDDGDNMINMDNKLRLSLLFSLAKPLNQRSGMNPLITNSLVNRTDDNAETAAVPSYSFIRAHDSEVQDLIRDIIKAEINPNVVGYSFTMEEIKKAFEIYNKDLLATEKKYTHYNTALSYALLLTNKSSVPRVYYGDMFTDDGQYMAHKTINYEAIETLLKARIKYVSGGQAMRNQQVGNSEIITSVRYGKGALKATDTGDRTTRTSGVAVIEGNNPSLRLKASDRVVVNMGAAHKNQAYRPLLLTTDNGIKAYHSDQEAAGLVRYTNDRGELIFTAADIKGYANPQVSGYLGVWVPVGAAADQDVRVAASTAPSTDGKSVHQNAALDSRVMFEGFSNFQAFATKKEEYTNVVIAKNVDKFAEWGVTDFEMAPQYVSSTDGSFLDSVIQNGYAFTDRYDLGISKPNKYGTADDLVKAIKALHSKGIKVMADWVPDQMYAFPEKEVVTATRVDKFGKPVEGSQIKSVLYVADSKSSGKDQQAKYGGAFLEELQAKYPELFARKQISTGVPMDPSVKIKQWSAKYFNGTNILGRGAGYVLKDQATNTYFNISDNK", "test": "SPR; Biacore T200; iSRCR1 immobilised on a CM5 chip by amine coupling; analyte GtfB-CD 2-8 uM in 20 mM HEPES pH 7.4, 150 mM NaCl, 1 mM CaCl2 at 20 ul/min; each concentration in triplicate; kinetic fitting", "details": "both partners purified", "data": [{"binder": "recombinant scavenger receptor cysteine-rich domain 1 of Gp340 expressed in insect cells (iSRCR1) (domain or fragment, Gp340 (salivary agglutinin), scavenger receptor cysteine-rich (SRCR) domain 1; source: recombinant, expressed in insect cells) not shown", "values": [{"measurement": "Kd", "result": 509, "unit": "nM"}]}]}
